# From US6187552A, “Method for identifying inhibitors of JAK2/cytokine receptor binding” (Pharmacia & Upjohn Company, priority 1998, dated 2001)
# Legend:
# JAK2 [1] = molecular target: T1, JAK2 (Homo sapiens, UniProt O60674); assay: ELISA binding of JAK2 to immobilized βc peptides; design: Y918N clone error corrected to Tyr
# Experimental: βc peptides corresponding to the proposed JAK2 binding domain (Table 1) were serially diluted and bound 16 hours at room temperature to streptavidin coated 96-well plates (Boehringer-Mannheim, Indianapolis, Ind.) and blocked at 37° with 1% fetal bovine serum in PBS. JAK2 protein was serially diluted on the plate and allowed to bind for 1 hour at room temperature. Plates were washed between incubations with ELISA wash (PBS with 0.04% TWEEN 20). Detection was via anti-FLAG antibody (10 μg/ml, Kodak, New Haven, Conn.) followed by anti-mouse Ig conjugated to peroxidase (1:5000 dilution, Boehringer Mannheim) and 1 mg/ml 2,2'-azinobis(3-ethylbenzthiazolinesulfonic acid) (Sigma), 0.003% H2 O2, 28 mM citric acid, 44 mM Na2 HPO4.
# The ELISA assay worked best when the biotinylated βc peptides were immobilized on a streptavidin 96-well plate and the JAK2 was allowed to bind. A dual titration of βc peptides vs. JAK2 was performed (FIG. 24). Peptide 1 [SEQ ID NO:11] (FIG. 24 A) and peptide 2 [SEQ ID NO:12] […] Because 0.4 μM peptide was calculated to saturate the number of biotin binding sites in each well, it was expected that the amount of JAK2 binding should saturate at this quantity of peptide. […] (FIGS. 24 C and D) but peptides 5 and 6 [SEQ ID NOS:15 and 16]
# [2] = molecular target: NJAK2 (N-terminal portion of JAK2) (Homo sapiens, UniProt O60674); assay: SPA: binding of 3H-NJAK2 (N-terminal JAK2) to βc peptides on streptavidin-coated beads; details: less than saturating peptide, 40 pmole per reaction, FIG. 12B
# Sequence of NJAK2 (N-terminal portion of JAK2) (O60674 1-294 S277G): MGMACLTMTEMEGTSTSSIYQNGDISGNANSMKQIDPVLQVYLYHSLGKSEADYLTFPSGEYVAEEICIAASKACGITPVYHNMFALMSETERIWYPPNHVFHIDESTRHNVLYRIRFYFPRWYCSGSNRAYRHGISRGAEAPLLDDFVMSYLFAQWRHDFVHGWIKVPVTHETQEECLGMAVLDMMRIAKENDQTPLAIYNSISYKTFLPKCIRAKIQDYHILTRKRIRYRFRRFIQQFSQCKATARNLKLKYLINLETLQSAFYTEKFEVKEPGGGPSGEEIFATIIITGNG
# Experimental: (§1) Three different labeling reactions were done using ^3 H-N-succinimidyl propionate (^3 H-NSP, Amersham Life Sciences, Arlington Heights, Ill.). One reaction was done using 0.5 mg of purified JAK2 in 0.1 M borate buffer, pH 8.5, with a reaction volume of 150 μl and an incubation time of one hour on ice with dried 1 mCi of ^3 H-NSP (toluene was removed using a stream of nitrogen). […] Another reaction was done using the buffer 0.1 M sodium phosphate, pH 8.0, and a similar volume as before. One milligram of JAK2 in 1.2 ml of phosphate buffer was incubated for three hours on ice. […] A third reaction was done using 2.5 mg of purified JAK2 in 0.1 m sodium phosphate, pH 8.0, and 2.5 ml volume. It was incubated with 5 mCi of dried ^3 H-NSP on ice for 2 hours. […] All three products were separated from unincorporated label using PD-10 columns (Pharmacia Biotech, Uppsala, Sweden) pre-equilibrated with 20 mM Tris, pH 8.0, 0.15 M NaCl.
# (§2) Triplicate reactions were done for each data point. The buffer used in all the assays was 35 mM sodium phosphate, 150 mM NaCl, pH 8.0, 10% glycerol. Biotinylated peptides were allowed to bind to streptavidin-coated SPA beads (Amersham Life Sciences, Arlington Heights, Ill., catalog # RPNQ0006) with either less than saturating peptide or excess peptide. […] Under less than saturating conditions, beads and 40 pmole peptide were added to the assay plate well and incubated for one hour with gentle shaking on a Titer plate shaker (Lab-Line Instruments, Inc., Melrose Park, Ill.) at 600 rpm and not washed. […] The plates were then read on a MicroBeta (Wallac) set to read scintillation due to tritium.
# (§3) Either ^3 H-JAK2 or ^3 H-NJAK2 was added to the wells and, after incubation, the signals measured. […] A competition reaction was also done by adding 5 to 10-fold excess unlabeled JAK2 in those reactions.
# JAK2 [3] = molecular target: T1, JAK2; assay: SPA: binding of 3H-JAK2 to βc peptides on streptavidin-coated beads; design: NJAK2 = N-terminal 294 residues
# Experimental: Cells were lysed by dounce homogenization (20 strokes) in 1X phosphate buffered saline (PBS), pH 7.5 at 4 C. […] For some experiments, the JAK2 protein (0.15 mg/ml), aliquoted into 7 equivalent tubes, was then subjected to ultracentrifugation in an Airfuge using an A-110 rotor at an average of 164,000×g for a period of 6 hours at ambient temperature. At zero time, and at each subsequent hour thereafter, a tube of JAK2 was removed for analyses (ELISA, SDS polyacrylamide gel electrophoresis, and Western blotting).
# as §1, §2, §3
# T1 sequence (O60674 3-1132): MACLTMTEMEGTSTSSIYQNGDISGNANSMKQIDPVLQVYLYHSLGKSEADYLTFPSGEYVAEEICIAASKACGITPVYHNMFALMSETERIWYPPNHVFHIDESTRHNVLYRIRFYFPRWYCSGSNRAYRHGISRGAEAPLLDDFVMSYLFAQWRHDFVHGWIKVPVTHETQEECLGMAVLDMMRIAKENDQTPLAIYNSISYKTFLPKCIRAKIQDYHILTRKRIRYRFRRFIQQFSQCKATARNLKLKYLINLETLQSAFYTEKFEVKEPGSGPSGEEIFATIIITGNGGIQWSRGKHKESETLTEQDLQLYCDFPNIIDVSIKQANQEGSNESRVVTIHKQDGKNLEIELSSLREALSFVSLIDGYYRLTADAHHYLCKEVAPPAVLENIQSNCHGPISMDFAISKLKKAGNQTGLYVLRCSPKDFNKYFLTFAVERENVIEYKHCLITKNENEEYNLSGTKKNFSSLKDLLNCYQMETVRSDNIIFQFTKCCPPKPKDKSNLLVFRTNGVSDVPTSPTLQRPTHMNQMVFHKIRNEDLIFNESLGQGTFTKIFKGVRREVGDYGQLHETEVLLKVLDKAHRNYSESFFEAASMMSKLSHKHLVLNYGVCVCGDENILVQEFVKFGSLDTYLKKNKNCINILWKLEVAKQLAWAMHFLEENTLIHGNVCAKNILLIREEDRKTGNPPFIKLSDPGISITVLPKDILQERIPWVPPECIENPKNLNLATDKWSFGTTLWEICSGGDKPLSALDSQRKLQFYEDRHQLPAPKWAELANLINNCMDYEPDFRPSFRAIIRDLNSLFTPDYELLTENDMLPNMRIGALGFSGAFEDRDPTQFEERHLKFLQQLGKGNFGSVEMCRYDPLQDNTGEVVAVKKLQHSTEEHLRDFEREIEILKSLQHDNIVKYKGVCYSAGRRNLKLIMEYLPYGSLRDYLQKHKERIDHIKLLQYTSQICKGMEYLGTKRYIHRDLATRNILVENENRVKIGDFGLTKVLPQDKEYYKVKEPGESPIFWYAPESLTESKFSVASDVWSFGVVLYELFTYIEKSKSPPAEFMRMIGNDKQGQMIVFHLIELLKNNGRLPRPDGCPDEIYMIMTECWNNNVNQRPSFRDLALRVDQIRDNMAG
sequence,measurement,setting,value
"GIYGYRLRRKWEEKIPNPSKSHLFQNGSAELWP [peptide 4, βc peptide, N-terminal truncation]",suitability for the ELISA,JAK2 [1],appear optimal
same,activity profile in binding 3H-NJAK2 (signal),[2],peptide 4>peptide 3>peptide 5>peptide 6>peptides 1 and 2
same,"binding in the SPA, comparison of peptides",JAK2 [3],binds better than peptide 3
same,suitability in the SPA,JAK2 [3],two most optimal
same,signal-to-noise ratio,"JAK2 [3]; 40 pmole (0.17 μg) peptide per reaction, without optimization",4.5
same,signal to noise ratio,"JAK2 [3]; 5.5 nM JAK2, κ-casein present, FIG. 17B",14
same,signal-to-noise ratio,"JAK2 [3]; BSA 0.1 mg/ml or 0.5 mg/ml (either concentration), FIG. 16",5
same,signal-to-noise ratio,"JAK2 [3]; BSA experiment, no additions, FIG. 16",4
same,amount of JAK2 at which binding reaches saturation,"JAK2 [3]; binding curve, peptide 4, FIG. 17A",about 40 pmole
same,apparent Kd,"JAK2 [3]; binding curve, varying labeled JAK2, FIG. 17A",very low apparent Kd
same,signal-to-noise ratio,"JAK2 [3]; excess peptide, no κ-casein, FIG. 15",10
same,signal-to-noise ratio,"JAK2 [3]; excess peptide, κ-casein 1 mg/ml during peptide binding to beads, FIG. 15",35
same,strength of binding (linear increase with JAK2),"JAK2 [3]; less than saturating JAK2, FIG. 17B",very strong
same,activity profile in binding 3H-JAK2 (signal),"JAK2 [3]; less than saturating peptide, 40 pmole per reaction, 3H-JAK2, FIG. 12A",peptide 4>peptide 3>peptide 5>peptide 6>peptides 1 and 2
same,"overall signals and signal-to-noise ratios, peptide and labeled JAK2 mixed prior to adding beads","JAK2 [3]; mixed one hour before beads, versus peptide bound to bead first, FIG. 13",lower overall signals and signal-to-noise ratios
same,"activity profile, peptide and labeled JAK2 mixed prior to adding beads","JAK2 [3]; mixed one hour before beads, FIG. 13",same activity profile
